Experimental data reported in patent publication US20260069689A1 (Regeneron, published 2026).

B1: mAb15157 (antibody, V domains shown)
VH: EVQLVESGGALVQPGGSLRLSCAASGFPFTIYAMTWVRQAPGKGLEWVSVITGSGDSTYYADSVKGRFTISRDNSKNTLYLQMNSLRAEDTAVYYCVKTGEGFFYYYYGMDVWGQGTTVTVSS
VL: QSVLTQPPSVSAAPGQKVTISCSGSSSNIGNSYISWYQQLPGTAPKLLIYVNNKRPSGIPDRFSGSKSGTSATLGITGLQTGDEADYYCGTWDSSLSAGVFGSGTKVTVLG
B2: mAb15158 (antibody, V domains shown)
VH: EVQLVESGGGLVQPGGSLRLSCAASGFSFSSNWMSWVRQAPGKGLEWVGNINQDGSEKYYVDSVEGRFTISRDNAKKSLYLQMNSLRAEDTAVYYCARDLGVLWFGDFVDWGQGALVTVSS
VL: DIQMTQSPSSLSASVGDRVTITCRASQAISNSLAWYQQKPGKAPKLLLYAASTLESGVPSRFSGSGSGTDYTLTISSLQPEDFATYYCLQYYGSPRTFGQGTKVEIKR
B3: mAb15159 (antibody, V domains shown)
VH: EVQLVESGGGLVQPGGSLRLSCAASGITVSSNYMTWVRQAPGKGLEWVSLIYSGGSTFYADSVRGRFTISRDNSKNTLYLQMNSLRAEDTAVYYCARDLVVYGMDVWGQGTTVTVSS
VL: DIQLTQSPSSLSASVGDRVTITCRASQGISSYLAWYQQKPGKAPKLLIYAASTLQSGVPSRFSGSGSGTDFTLTISSLQPEDFATYYCQHLNSDPHTFGQGTKLEIKR
B4: mAb15160 (antibody, V domains shown)
VH: EVQLVESGGGLVQPGGSLRLSCSASGFTFSRYAMYWVRQAPGKGLEYVSAISSDGGSTYDADSVKGRFTISRANSKNTLYLQMSSLRAEDTAVYYCVKGLRELLYYYYGMDVWGQGTTVTVSS
VL: DIQMTQSPSSLSASVGDRVTITCRAGQSISSFLNWYQQKPGKAPKLLIYAASSLQSGVPSRFSGSGSGTDFTLTISSLQPEDFATYYCQQSYITPFTFGPGTKVDIKR
B5: mAb15161 (antibody, V domains shown)
VH: EVQLVESGGGLVQPGGSLRLSCAASGFTFSSYEMNWVRQAPGKGLEWVSYISSSGSILYYADSVKGRFTASRDNAKNSLYLQMNSLRAEDTGVYYCARREYQLLRPFEFWGQGTLVTVSS
VL: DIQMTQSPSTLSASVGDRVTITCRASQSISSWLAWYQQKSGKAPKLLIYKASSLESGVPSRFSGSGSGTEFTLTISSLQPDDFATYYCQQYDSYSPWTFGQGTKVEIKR
B6: mAb15162 (antibody, V domains shown)
VH: EVQLVETGGGLIQPGGSLRLSCAASEFIVSRNYMSWVRQAPGKGLEWVSLIYSGGSTYYADSVKGRFTISRDNSKNILYLQMNSLRAEDTAVYYCARDRGGISDYWGQGTLVTVSS
VL: DIQMTQSPSSLSASVGDRVTITCQASQDINKYLNWFQQKPGKAPKLLIYDASNLETGVPSRFSGSGSGTDFTFTISSLQPEDIATYYCQQYDNLPRTFGQGTKLEIKR
B7: mAb15163 (antibody, V domains shown)
VH: EVQLVETGGGLIQPGESLRLSCAASGFIVSTNYMNWVRQAPGKGLEWVSVIYRGGSTYYADSVKGRFTISRDNSKNTLFLQMNSLRAEDTAVYYCARGHEDFDYDTPASGAFDIWGQGTMVTVSS
VL: QSALTQPPSASGSPGQSVTISCTGTSSDVGGHNYVSWYQQHPGKAPKVMIYEVSKRPSGVPDRFSGSKSGNTASLTVSGLQAEDEADYYCSSYAGSNKFVFGTGTKVTVLG
B8: mAb15164 (antibody, V domains shown)
VH: EVQLVESGGGLVQPGGSLRLSCAASGFAVSSNYMTWVRQAPGKGLEWVATIYSGDSTYYADSVKGRFTISRHNSKNTLSLQMNSLRADDTAIYYCARLSGVLSGTYNGAFDIWGQGTMVTVSS
VL: QSALTQPASVSGSPGQSITISCTGTSSDFGNYNIVSWYQQHPGQAPKVMIYEGNKRPSGVSNRFSGSKSGHTASLTISGLQAEDEADYYCSSYAGSSTWVFGGGTKLTVLG
B9: mAb15165 (antibody, V domains shown)
VH: EVQLVESGGGLVQPGGSLRLSCAASGFTVSSNYMSWVRQAPGKGLEWVSAIYSGDSTYYADSVKGRFTISKDNSKNTLYLQMNSLRGEDTAVYYCARLGGALQAYDGAFDYWGQGTLATVSS
VL: QSALTQPASVSGSPGQSITISCTGTSSDFGSYNLVSWYQQHPGKAPKLMIYEGNKRPSGVSIRFSGSKSGNTASLTISGLQAEDEADYYCSSYAGSSTWVFGGGTKLTVLG
B10: mAb15166 (antibody, V domains shown)
VH: EVQLVESGGGLVQPGGSLRLSCAASGFTVTSNYMSWVRQAPGKGLEWVSAIYSGESTYYADSVKGRFTISRDSSKNTLYLQMNSLRVEDTAVYYCASIHDYSNYVGGFDPWGQGTLVTVSS
VL: QSALTQPASVSGSPGQSITISCTGPSSDFGSYNLVSWYQQHPGKAPKLMIYEGTKRPSGVSNRFSGSKSGNTASLTISGLQAEDEADYYCSSYAGSSTWVFGGGTKLTVLG
B11: mAb15170 (antibody, V domains shown)
VH: EVQLVESGGGLVQPGGSLRLSCAATGITVSSNYMSWVRQAPGKGLEWVSLIYSGGSTFYADSVKGRFTISRHNSKNTLYLQMSSLRAEDTAVYYCARDLVDFGMDVWGQGTTVTVSS
VL: DIQLTQSPSSLSASVGDRVTITCRASQGISNYLAWYQQKPGKAPKLLIYAASTLQSGVPSRFSGSGSGTDFTLTISSLQPEDFGTYYCQQLNSDSPTFGQGTKVEIKR
B12: mAb15150 (antibody, V domains shown)
VH: EVQLVETGGGLIQPGGSLRLSCAAPGFIVSSNYMSWVRQAPGKGLEWVSLLYPGGSTYYADSVKGRFTISRDNSKNTLYLQMNSLRADDTAVYYCARVLPIVEDHFDYWGQGTLVTVSS
VL: DIQLTQSPSFLSASVGDRVTITCRASQGMSSYLAWYQKKPGKAPKLLIYGATILQSGVPSRFSGSGSGTEFTLTISSLQPEDFATYYCQQLNSDPLYMYTFGQGTKLEIKR

What was measured:
[1] = target: T1, SARS-CoV2 Spike ecto foldon Trimer expressed with a C-terminal myc-myc-hexahistidine (SARS-CoV-2, UniProt P0DTC2 14-1213); test: SPR Biacore, mAb captured by anti-hFc, 25C
T1 construct: extracellular domain

[2] = target: T1, SARS-CoV2 Spike ecto foldon Trimer …; test: SPR Biacore, mAb captured by anti-hFc, 37C

Binder | Kd [1] [nM] | koff [1] [s⁻¹] | kon [1] [M⁻¹ s⁻¹] | t½ [1] [h] | Kd [2] [nM] | koff [2] [s⁻¹] | kon [2] [M⁻¹ s⁻¹] | t½ [2] [h]
B1 | 0.308 | 9.28e-05 | 302000 | 2.08 | 0.141 | 0.00024 | 1.7e+06 | 0.803
B2 | 0.153 | 1.4e-05 | 91500 | 13.8 | 0.0541 | 4.07e-05 | 758000 | 4.73
B3 | 0.231 | 2.02e-05 | 87500 | 9.53 | 0.0686 | 3.22e-05 | 467000 | 5.99
B4 | 0.102 | 3.1e-05 | 304000 | 6.21 | 0.132 | 0.000167 | 1.26e+06 | 1.15
B5 | 0.049 | 1.38e-05 | 280000 | 14 | 0.0616 | 9.14e-05 | 1.48e+06 | 2.11
B6 | 0.648 | 6.79e-05 | 105000 | 2.83 | 0.425 | 0.000187 | 440000 | 1.03
B7 | 0.0562 | 1.15e-05 | 214000 | 16.7 | 0.0364 | 4.85e-05 | 1.35e+06 | 3.97
B8 | 0.0865 | 2.58e-05 | 298000 | 7.47 | 0.0777 | 0.000138 | 1.78e+06 | 1.4
B9 | 0.0279 | 1.09e-05 | 391000 | 17.6 | 0.0542 | 0.000115 | 2.12e+06 | 1.67
B10 | 0.63 | 0.000174 | 276000 | 1.1 | 0.054 | 8.32e-05 | 1.54e+06 | 2.31
B11 | 0.11 | 1.29e-05 | 120000 | 14.9 | 0.0118 | 1e-05 | 846000 | 19.2
B12 | ≤ 0.0315 | ≤ 1e-05 | 317000 | 19.2 | 0.0202 | 3.42e-05 | 1.68e+06 | 5.63
